US20100048462A1, “TRUNCATED PTH PEPTIDES WITH A CYCLIC CONFORMATION” (Zealand Pharma A/S, priority 2006, published 2010)
Bridge positions count the residues as written; N and C are the ends. Square brackets hold non-standard residues; d marks the D form. Peptide text beside a SMILES is read from it. hArg = N=C(N)NCCCC[C@H](N)C(=O)O; Nle = CCCC[C@H](N)C(=O)O; Ac5c = NC1(C(=O)O)CCCC1; Dab = NCC[C@H](N)C(=O)O; Aib = CC(C)(N)C(=O)O

T1: Saos-2 PTH1R (Homo sapiens, UniProt Q03431)
T1 construct: endogenous in cells; host or cells: Saos-2
T1 sequence (Q03431 27-593): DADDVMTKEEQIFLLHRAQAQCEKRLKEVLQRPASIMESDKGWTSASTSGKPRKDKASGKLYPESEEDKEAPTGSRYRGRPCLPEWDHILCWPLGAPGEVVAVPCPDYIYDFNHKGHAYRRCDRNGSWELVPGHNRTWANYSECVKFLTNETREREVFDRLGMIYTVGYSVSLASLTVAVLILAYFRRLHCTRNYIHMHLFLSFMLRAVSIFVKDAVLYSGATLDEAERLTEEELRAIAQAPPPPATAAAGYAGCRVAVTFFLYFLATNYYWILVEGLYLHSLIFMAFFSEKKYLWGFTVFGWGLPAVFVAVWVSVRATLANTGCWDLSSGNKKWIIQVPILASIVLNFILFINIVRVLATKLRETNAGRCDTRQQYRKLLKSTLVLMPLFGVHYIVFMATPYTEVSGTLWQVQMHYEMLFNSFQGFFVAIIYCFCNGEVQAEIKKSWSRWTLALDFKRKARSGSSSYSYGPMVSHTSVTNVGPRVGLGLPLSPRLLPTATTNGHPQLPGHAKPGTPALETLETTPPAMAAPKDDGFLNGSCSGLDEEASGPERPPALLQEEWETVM


Tests used:
[1] = target: T2, CYP2D6 (Homo sapiens, UniProt P10635); assay: cell-based or functional assay
T2 sequence (P10635 whole entry): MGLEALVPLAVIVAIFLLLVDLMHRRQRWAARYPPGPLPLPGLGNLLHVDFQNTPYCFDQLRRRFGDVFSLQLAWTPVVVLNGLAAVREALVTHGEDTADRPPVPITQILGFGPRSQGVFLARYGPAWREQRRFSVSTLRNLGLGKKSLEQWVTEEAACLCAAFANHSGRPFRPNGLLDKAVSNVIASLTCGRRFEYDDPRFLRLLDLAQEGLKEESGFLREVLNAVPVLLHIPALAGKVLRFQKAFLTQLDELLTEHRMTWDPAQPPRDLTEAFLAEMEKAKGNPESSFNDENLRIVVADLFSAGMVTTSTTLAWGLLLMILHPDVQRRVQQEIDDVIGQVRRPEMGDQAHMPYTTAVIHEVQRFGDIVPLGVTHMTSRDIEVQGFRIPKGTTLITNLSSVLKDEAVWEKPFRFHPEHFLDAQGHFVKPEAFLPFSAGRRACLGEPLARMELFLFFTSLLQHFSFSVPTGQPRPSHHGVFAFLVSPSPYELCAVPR

[2] = target: Saos-2 PTH1R (UniProt Q03431); assay: cell-based or functional assay
[3] = target: T1, Saos-2 PTH1R; assay: cAMP-efficacy assay in Saos-2 cells; format: cell-based; conditions: for EC50: cAMP, 100 μM IBMX, 37° C. 15 min, suffix of label = salt tested; for Emax ± SEM: relative effect to the control (SEQ ID NO: 32)
In short: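 cAMP accumulation was assayed by FlashPlate after 15 min peptide stimulation at 37 °C of Saos-2 cells in Tyrode's buffer containing 100 μM IBMX and 0.1% BSA, with the reaction stopped by ice-cold HCl. Variable-slope logistic fitting gave EC50/pEC50, Hill coefficient and Emax, with single or triplicate points.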

[4] = target: T2, CYP2D6; assay: CYP2D6 inhibition in pooled human liver microsomes; format: in vitro ADME; design: Pooled human liver microsomes (HLM, final concentration 0.05 mg protein/mL); tissue BD Biosciences 452161; host or cells: pooled human liver microsomes; conditions: 10 μM compound, dextrorphan formation rate
Procedure: Stock solutions of the test compounds (1 mM) were prepared in 50% isopropanol or 20% DMSO. Pooled human liver microsomes (HLM, final concentration 0.05 mg protein/mL) were mixed with phosphate buffer (0.1 M potassium phosphate, pH 7.4), CYP2D6 substrate (dextrometrorphan, 5 μM final concentration) and test compound (10 μM), quinidine (0.5 μM) or vehicle (0.2% DMSO or 0.5% isopropanol). The mixture was preincubated for 5 min at 37° C. prior to initiation of the reaction addition of a NADPH regenerating mixture (Final concentration: 1.25 mM NADP^+, 3.3 mM Glucose-6-phosphate, 3.3 mM MgCL2 and 0.4 U/mL glucose-6-phosphat dehydrogenase). After 5 minutes the reaction was stopped by addition of 0.25 volume stop reagent (94% acetonitrile, 6% acetic acid). Each experiment was performed in duplicate or triplicate.
The quantification of CYP2D6 product (dextrorphan) was performed by LC/MS/MS. After centrifugation for 5 min at 10.000 g, 40 μL of the supernatant was injected onto a C8 RP-HPLC column (XterraMS, C8, […], 50×2.1 mm). Dextrorphan was eluted by a linear gradient from 0 to 90% acetonitrile in 0.1% formic acid over 4 min using a flow rate of 0.15 ml/min. The concentration of dextrorphan in the reaction mixture was estimated from the peak area of the MS/MS transition (m/z 258.1>199) using an external calibration curve (Table 8).
The CYP2D6 activity in HLM was calculated as the metabolite formation rate: […]
Where, v is the formation rate, [metabolite] is the detected concentration of dextrorphan (pmol/mL) at the time (t, min) and [protein] is the protein concentration (mg/mL) in the reaction mixture. The influence of the test compounds on the CYP2D6 activity was calculated as % of the activity measured when incubated with the vehicle. The effect of CYP2D6 inhibitor (quinidine) was included as inhibition control within each batch analysis. A reduction in CYP2D6 activity to less than 70% of the vehicle control was considered significant.

Molecule | CYP2D6 activity (% of vehicle), dextrorphan formation rate in human liver microsomes, 10 µM peptide [1] | EC50 [3] [µM] | Emax ± SEM [3] | CYP2D6 activity (% of vehicle) [4] | also measured
H-Ser-Val-Ser-Glu-Ile-Gln-Leu-Met-His-Asn-Leu-Gly-Lys( )-His-Leu-Asn-Asp( )-NH2 (peptide) | 79 % of vehicle |  |  |  | 
H-Ac5c-Val-Aib-Glu-Ile-Gln-Leu-Met-His-Glu-Har-Ala-Lys( )-Trp-Leu-Asn-Asp( )-NH2 (peptide) | 83 % of vehicle |  |  |  | Emax, cAMP efficacy assay in Saos-2 cells (24T, trifluoroacetate salt) (relative to control (SEQ ID NO: 32)) [2]: 1.4; pEC50, cAMP efficacy assay in Saos-2 cells (24T, trifluoroacetate salt) [2]: 6.9 -log(M)
H-Ac5c-Val-Aib-Glu-Ile-Gln-Leu-Met-His-Gln-Har-Ala-Glu( )-Trp-Leu-Asn-Lys( )-NH2 (peptide) | 99 % of vehicle |  |  |  | Emax, cAMP efficacy assay in Saos-2 cells (8T, trifluoroacetate salt) (relative to control (SEQ ID NO: 32)) [2]: 1.07; pEC50, cAMP efficacy assay in Saos-2 cells (8T, trifluoroacetate salt) [2]: 7.94 -log(M)
CC[C@H](C)[C@H](NC(=O)[C@H](CCC(=O)O)NC(=O)C(C)(C)NC(=O)[C@@H](NC(=O)C1(N)CCCC1)C(C)C)C(=O)N[C@@H](CCC(N)=O)C(=O)N[C@@H](CC(C)C)C(=O)N[C@@H](CCSC)C(=O)N[C@@H](Cc1c[nH]cn1)C(=O)N[C@@H](CCC(N)=O)C(=O)N[C@@H](CCCCNC(=N)N)C(=O)N[C@@H](C)C(=O)N[C@H]1CSSC[C@@H](C(N)=O)NC(=O)[C@H](CC(N)=O)NC(=O)[C@H](CC(C)C)NC(=O)[C@H](Cc2c[nH]c3ccccc23)NC1=O [SEQ ID NO: 7, H-Ac5c-Val-Aib-Glu-Ile-Gln-Leu-Met-His-Gln-Har-Ala-Cys( )-Trp-Leu-Asn-Cys( )-NH2] (H-[Ac5c]V[Aib]EIQLMHQ[hArg]ACWLNC-NH2; disulfide 13-17) |  | 0.0501 | 1.2 | 85 % of vehicle | 
CC[C@H](C)[C@H](NC(=O)[C@H](CCC(=O)O)NC(=O)C(C)(C)NC(=O)[C@@H](NC(=O)C1(N)CCCC1)C(C)C)C(=O)N[C@@H](CCC(N)=O)C(=O)N[C@@H](CC(C)C)C(=O)N[C@H](C(=O)N[C@@H](Cc1c[nH]cn1)C(=O)N[C@@H](CCC(N)=O)C(=O)N[C@@H](CCCCNC(=N)N)C(=O)N[C@@H](C)C(=O)N[C@H]1CCCCNC(=O)C[C@@H](C(N)=O)NC(=O)[C@H](CC(N)=O)NC(=O)[C@H](CC(C)C)NC(=O)[C@H](Cc2c[nH]c3ccccc23)NC1=O)C(C)C [SEQ ID NO: 21, H-Ac5c-Val-Aib-Glu-Ile-Gln-Leu-Val-His-Gln-Har-Ala-Lys( )-Trp-Leu-Asn-Asp( )-NH2] (H-[Ac5c]V[Aib]EIQLVHQ[hArg]AKWLND-NH2; lactam 13-17) |  | 0.151 | 1.40 ± 0.27 | 92 % of vehicle | 
H-Ser-Val-Ser-Glu-Ile-Gln-Leu-Met-His-Asn-Leu-Gly-Lys-His-Leu-Asn-Ser-NH2 (peptide) | 41 % of vehicle |  |  |  | 
CC[C@H](C)[C@H](NC(=O)[C@H](CCC(=O)O)NC(=O)C(C)(C)NC(=O)[C@@H](NC(=O)C1(N)CCCC1)C(C)C)C(=O)N[C@@H](CCC(N)=O)C(=O)N[C@@H](CC(C)C)C(=O)N[C@@H](CCSC)C(=O)N[C@@H](Cc1c[nH]cn1)C(=O)N[C@@H](CCC(=O)O)C(=O)N[C@@H](CCCCNC(=N)N)C(=O)N[C@@H](C)C(=O)N[C@H]1CCCCNC(=O)C[C@@H](C(N)=O)NC(=O)[C@H](CC(N)=O)NC(=O)[C@H](CC(C)C)NC(=O)[C@H](Cc2c[nH]c3ccccc23)NC1=O [SEQ ID NO: 24, H-Ac5c-Val-Aib-Glu-Ile-Gln-Leu-Met-His-Glu-Har-Ala-Lys( )-Trp-Leu-Asn-Asp( )-NH2] (H-[Ac5c]V[Aib]EIQLMHE[hArg]AKWLND-NH2; lactam 13-17) |  | 0.126 | 1.4 | 83 % of vehicle | 
H-Ac5c-Val-Aib-Glu-Ile-Gln-Leu-Met-His-Gln-Har-Ala-Lys( )-Trp-Leu-Asn-Asp( )-OH (peptide) | 89 % of vehicle |  |  |  | Emax, cAMP efficacy assay in Saos-2 cells (4T, trifluoroacetate salt) (relative to control (SEQ ID NO: 32)) [2]: 1.11; pEC50, cAMP efficacy assay in Saos-2 cells (4T, trifluoroacetate salt) [2]: 7.42 -log(M)
H-Ac5c-Val-Aib-Glu-Ile-Glu-Leu-Met-His-Gln-Har-Ala-Lys( )-Trp-Leu-Asn-Asp( )-NH2 (peptide) | 89 % of vehicle |  |  |  | Emax, cAMP efficacy assay in Saos-2 cells (18T, trifluoroacetate salt) (relative to control (SEQ ID NO: 32)) [2]: 1.24; pEC50, cAMP efficacy assay in Saos-2 cells (18T, trifluoroacetate salt) [2]: 7.29 -log(M)
CCCC[C@H](NC(=O)[C@H](CC(C)C)NC(=O)[C@H](CCC(N)=O)NC(=O)[C@@H](NC(=O)[C@H](CCC(=O)O)NC(=O)C(C)(C)NC(=O)[C@@H](NC(=O)C1(N)CCCC1)C(C)C)[C@@H](C)CC)C(=O)N[C@@H](Cc1c[nH]cn1)C(=O)N[C@@H](CCC(N)=O)C(=O)N[C@@H](CCCCNC(=N)N)C(=O)N[C@@H](C)C(=O)N[C@H]1CCCCNC(=O)C[C@@H](C(N)=O)NC(=O)[C@H](CC(N)=O)NC(=O)[C@H](CC(C)C)NC(=O)[C@H](Cc2c[nH]c3ccccc23)NC1=O [SEQ ID NO: 20, H-Ac5c-Val-Aib-Glu-Ile-Gln-Leu-Nle-His-Gln-Har-Ala-Lys( )-Trp-Leu-Asn-Asp( )-NH2] (H-[Ac5c]V[Aib]EIQL[Nle]HQ[hArg]AKWLND-NH2; lactam 13-17) |  | 0.00794 | 0.97 ± 0.04 | 99 % of vehicle | 
H-Ac5c-Val-Aib-Glu-Ile-Gln-Leu-Nle-His-Gln-Har-Ala-Lys( )-Trp-Leu-Asn-Asp( )-NH2 (peptide) | 99 % of vehicle |  |  |  | Emax, cAMP efficacy assay in Saos-2 cells (20T, trifluoroacetate salt) (relative to control (SEQ ID NO: 32)) [2]: 0.97; pEC50, cAMP efficacy assay in Saos-2 cells (20T, trifluoroacetate salt) [2]: 8.1 -log(M)
H-[Ac5c]V[Aib]EIQLLHQ[hArg]A[Dab]WLND-NH2 (lactam 13-17; SMILES CC[C@H](C)[C@H](NC(=O)[C@H](CCC(=O)O)NC(=O)C(C)(C)NC(=O)[C@@H](NC(=O)C1(N)CCCC1)C(C)C)C(=O)N[C@@H](CCC(N)=O)C(=O)N[C@@H](CC(C)C)C(=O)N[C@@H](CC(C)C)C(=O)N[C@@H](Cc1c[nH]cn1)C(=O)N[C@@H](CCC(N)=O)C(=O)N[C@@H](CCCCNC(=N)N)C(=O)N[C@@H](C)C(=O)N[C@H]1CCNC(=O)C[C@@H](C(N)=O)NC(=O)[C@H](CC(N)=O)NC(=O)[C@H](CC(C)C)NC(=O)[C@H](Cc2c[nH]c3ccccc23)NC1=O) [H-Ac5c-Val-Aib-Glu-Ile-Gln-Leu-Leu-His-Gln-Har-Ala-Dab( )-Trp-Leu-Asn-Asp( )-NH2] | 82 % of vehicle |  |  |  | Emax, cAMP efficacy assay in Saos-2 cells (41T, trifluoroacetate salt) (relative to control (SEQ ID NO: 32)) [2]: 0.99; pEC50, cAMP efficacy assay in Saos-2 cells (41T, trifluoroacetate salt) [2]: 7.19 -log(M)
H-[Ac5c]V[Aib]EIQLMHNLGKHLNS-NH2 (SMILES CC[C@H](C)[C@H](NC(=O)[C@H](CCC(=O)O)NC(=O)C(C)(C)NC(=O)[C@@H](NC(=O)C1(N)CCCC1)C(C)C)C(=O)N[C@@H](CCC(N)=O)C(=O)N[C@@H](CC(C)C)C(=O)N[C@@H](CCSC)C(=O)N[C@@H](Cc1c[nH]cn1)C(=O)N[C@@H](CC(N)=O)C(=O)N[C@@H](CC(C)C)C(=O)NCC(=O)N[C@@H](CCCCN)C(=O)N[C@@H](Cc1c[nH]cn1)C(=O)N[C@@H](CC(C)C)C(=O)N[C@@H](CC(N)=O)C(=O)N[C@@H](CO)C(N)=O) [H-Ac5c-V-Aib-…-NH2] | 48 % of vehicle |  |  |  | Emax, cAMP efficacy assay in Saos-2 cells (35T, trifluoroacetate salt) (relative to control (SEQ ID NO: 32)) [2]: 1.2; pEC50, cAMP efficacy assay in Saos-2 cells (35T, trifluoroacetate salt) [2]: 5.09 -log(M)
